A short description of the data set: yeast display, Sf9 membrane polyspecificity reagent, FACS + sequencing; frameworks hold sequencing errors. In outline:
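A synthetic nanobody library was expressed on Saccharomyces cerevisiae BJ5465 by galactose induction for 36–48 hours. The library was stained for 1 hour at 4 °C with 10% biotinylated, detergent-solubilized Sf9 membrane reagent and enriched with streptavidin microbeads before FACS. Low and high (top ~1%) gates were set on anti-HA fluorescence for expression and streptavidin fluorescence for reagent binding, and each polyreactivity label reflects the gate of origin.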
Consider “HCQLVESGGVLVQEGGSLRISCAASGYTFTPYAMGWYRQAPGKEREFVAGITWRTGRTYYADSVKGRFTISRDIAKNTVYLQMISLKPEDTAVYYCNKYHQRRYYWSYDYWGQGTQVTVSS”, for which the “polyreactivity (PSR sort gate)” value is reported as “low polyreactivity”.
In the case of “QVQLVESGGGLVQAGGSLRLSCAASGIIFYDYAMGWSRQAPGKERELVATITRGGGTKYADSVKGRFTISRDNAKNTVYLQMNSLKPEDTAVYYCAADSHGVYEGDYWGQGTQVTVSS” it was “low polyreactivity”.
Then “QVQLEESGGRLVQAGGSLRLSCAASGLIFAVYAMGWYRQAPGKERELVASSTGSTYYADSVKGRFTISRDNAKNTVYLQMNSLKPEDHAVYYCAADIIRVLDIPLYYWGQGSQVTVSS”, with “low polyreactivity”.
In the case of “QVQLVDSGGGLVQAGGSLRLSCAASGFNFASYALGWYRPAPGKERELVAAISQSGGRTYYADSVKGRFTISRDNANNTVYLQMNSLKPEDTAVYYCAAPSYRYIYYSPGTGLGYWGQGTQVTVSS” it was “high polyreactivity”.
“QVQLVESGGGLVQAGGSLPLSCAASGNTFYNYAMGWYRQAPGKERELVAAISLSGGSTYYADSVKGRFTISRDNAKNTVYLQMNSLKPEDTAVYYCAADIFYYSSSYGYWGQGTQVTVSS”: the “polyreactivity (PSR sort gate)” value is reported as “low polyreactivity”.
Turning to “QVQLVESGGGLVQAGGILRLSCAASGFTFQNNAMGWYRQAPGKERELVARITRSDGSTYYADSVKGRFTISRDNAKNTVYLQMNSLKPEDNAVYYCAARYGLLGSSRGGYWGQGTQVTVSS”, the “polyreactivity (PSR sort gate)” value is recorded as “low polyreactivity”.
Take “QVQLVESGGGLVQAGGSLRLSCAASGSIFTPNGRGWYRPAPGKDSELVAAISQSGGSTFYADSVKGRFTMSRDNAKYTVYLQMNSLKPEDSAVYYCATEYYGPVYDLDYDYWGQGSQVTVSS”: the “polyreactivity (PSR sort gate)” value is reported as “low polyreactivity”.
Then “QVQLVESGGGLVQAGGSLRFSCAASGRTLVYNGMGWYRPAPGKERELVAAITTDGGDTYYADSVKGRFTISRDNAKNTVYLQMDSLKPEDTAVYYCAADYVALYYWYDYWGQGTQVTVSS”, with “low polyreactivity”; and “QVQLVESGGGLVQAGGSLRLSCAASGFTFYRYAMGWYRQAPGKERELVAAISTSGGSTYYADSVKGRFTISRDNAKNTVYLQMNSLKPEDTAVYYCAASYYGKRDRAGPYYSFDYWGQGTQVTVSS”, with “high polyreactivity”; and “QVQLVESGGGLVQAGGSLRLICAASGSTFWWYAMGWYRKAPGKEREFVAAIRWSSGSTYYADSVKGRFTISRDNAKNTVYLQMNSLKPEDTAVYYCATDDTSNVYVDLDYWGQGTQVTVSS”, with “high polyreactivity”.
Then “HVQLVESGGGLVQAGGSLRLSCAASGRIFLRYAMGWYRQAPGKERELVAVISSGGSTYYADSVKGRFTISRDNAKNTVYLQMHSLKPEDSAVYYCAARRHDSRYQYDYWGQGTQVSVSS”, with “high polyreactivity”.
Then “QVQLVESGGGLVQAGGSLRLSSAASGTTFAPNAMGWYRPAPGKERELVAAISSGGDSTNYADSVKGRFTISRDNAKNTVYLQLNSLKPEDTAVYYCAAHYVEREYDYWGQGTQVTVSS”, with “low polyreactivity”.
Take “QVQLVESGGGLVQAGGILRLSCASSGSICYWYAMGWYRQAPGKERELVASITGGGSKKYAESLKGRFTISRDNANNSVYLQINSLKREDTAVYYCAARYGQPWGSRYYYWGQVTQVTVSS”: the “polyreactivity (PSR sort gate)” value was “high polyreactivity”.
Then “QVQLVESGGGLVQAGGSLRLSCAASGRIFGHNAMGWYRQAPGKERELVAAISYRGCSTYYADSVKGRCTISRDNAKNTVYLQMNSLKPVDTAVYYCAARWNRGRYDYWGQGTEVTVSS”, with “high polyreactivity”; and “QVQLVESGGGLVQAGGSLRLSCAASGGTFRVYAMGWYRQAPGKERELVASISWTVGGTYADSVKGRFTISRDNAKNTVYLQMNSLKPEDTAVYYCAAGGEWVNPYFPSSLDYWGQGTQVTVSS”, with “low polyreactivity”.
In the case of “QVQLVESGGGLVQAGGSLRLSCAASGFIFKRYGMGWYRQAPGKERELVAAISYSGGSTYYADSVKGRFTISRDNAKNTVYLQMNSLKPEDTAVYYCKATIHYNAGWTMGSWGQGTQVTVSS” it was “high polyreactivity”.
In the case of “QVQLVESRGGLVQAGGRLRLSCAASGSIFDWYAMGWYRQAPGKERELVADITWSGDSTYYADSVKGRFTISRDNAKNTVYLQMNSLKPEDTAVYYCAADIWFNTYYEYDYWGQGTQVTVSS” it was “high polyreactivity”.
Turning to “QVQLVESGGGLVQAGGSLRLSCAASGRNITANAMGWYRQAPGKEREFVAAINVSGGSTYYADSVKGRFTISRDNAKNTVYFQMNSLKPEDTAVYYCNADYYYYDIYWWQMDYWGLGTQVTVSS”, the “polyreactivity (PSR sort gate)” value is “low polyreactivity”.
Then “QVQLVESGGGLVQAGGSLRLTCAASGSIFNGYAMGCYRQAPGKERELVAAIRTRGGSTYYADSVKGRFTISRDIAMNTVYLQMNSLKPEDTAVYYCAKRYFGWYGNFDYWGQGTQVTVSS”, with “high polyreactivity”; and “QVQLVESGGGLVQAGGSLRLSCAASGRIFYRYAMGWYRQAPGKERELVAAISSGGSTYADSVKGRFTISRDNAKNTVYLQMNSLKPEDTAVYFCAARLYTYPKGKYWGQGTQVTVSS”, with “high polyreactivity”; and “QVQLVESGGGLVQAGGSLLLSCAASGRIFRYYAMGWYRQATGKERELVAGISWRGSSTYYADSVKGRFTISRDNATNTVYLQMNSLKPEDTAVYYCNRDQSYIPFTGGRFYYWGQGTQVTVSS”, with “high polyreactivity”.
For the sequence “QVQLVESGGGLVQAGGSLRLSCAASGSTFYAYAMGWYRQAPGKERELVAAISSDGTNYADSVKGRFTISRDNAKNSVNLQMNSLKPVDTAVYYCAADLLLYSSQDNDYWGQGTQVTVSS”, the “polyreactivity (PSR sort gate)” value was “low polyreactivity”.
Then “QVQLVESGGGLVQAGGSLRLSCAASGRIFWYYAMGWSRQAPGKERELVATISYGGGNTYYADSVKGRFTISRDNAKNTVYLQMNSLKPEDTAVYYCARVPYAYLPYKPFQQYSYDYWGQGTQVTVSS”, with “high polyreactivity”.
For the sequence “QVQLVESGGGLVQAGGSLRLSCAGSGSNFDVYTMGWYRKAPGKERELVAAINTGGGSTYYADSVKGRFTISRDNAMNTVYLQMNSLKPEDTAVYYCAASVYHYGPLYYWRQGTQVTVSS”, the “polyreactivity (PSR sort gate)” value is listed as “low polyreactivity”.
Then “QVQLVESGGGLVQAGGSLRLSCAASGRTLTIYAMGWYRPAPGKERELVAAINWSGGGTYYADSVKGRFTISRDNAKNTVYLQMNRLKPEDTAVYYCAAGRSFRGSYWYEYWGQGTQVTVSS”, with “high polyreactivity”; and “QVQIVESGGGIVQAGGSLRLSCGASGRTFYYYAMGWYRQAPGKERELVASITWSGSSTTYADSVKGRFTISRDNSKNTFVLQLNRLKQQASAVYYCAADPYFWGYHFRRYGSWGQGTQVTVSS”, with “low polyreactivity”.
Turning to “QLQLVESGGGLVQAGGSLRLSCAASGRTFYRNGKGWYIQAPGKERELVATISSGGITNYADSVKGRFTISRDNAKNTVYLQMNSLKPEDTAVYYCNAKKAYYGRGMNYWGQGTQVTVSS”, the “polyreactivity (PSR sort gate)” value is reported as “low polyreactivity”.
Then “QVQLVESGGGLVQAGGSLRLSCAASGSILRTYTMGWYRQAPGKERELVAAISSSGGRTYYADSVKGRFTISRDNAKNTVYLQMNSLKPEDTAVYYCNAAYTTWRRGPMNYWGQGTQVTVSS”, with “high polyreactivity”; and “QVQLVESGGGLVQAGCSLRLSCAASGRTFRSDNSMGWYRQSPGKQRELVAAISQGGGTYYADSVKGRFTISRDNAKNTVYLLMNSLIPEDTAVYYCARDAFYADPSLWYYTYDFWGQGTQETVSS”, with “low polyreactivity”; and “QVQLVESGGGLVQAGGSLRLSCAASGRTFASYTMGWYRQAPGKERELVAAITRGGSTNYADSVKGRFTISRDNAKNTVYLQMNSLKPEDTAVYYCAARFSRSFGYNYWGQGTQVTVSS”, with “high polyreactivity”.
In the case of “QVQLVESGGGLVQAGGSLRLSCAASGFTFQPYAMGWYRQAPGKERELVAAINWSSGRTYYADSVKGRFTISRDNAKNTVYLEMNCLKPEDTAVYYCNTRSTLGYYWGQGTQVTVSS” it was “high polyreactivity”; in that of “QLQLVESRGGLVQAGGSLRLSCAASGRIFFSNPMGWYIQAPGKDRELVASMTGGDDTNYADSVKGRFTISRDNAKNTVYLQMNSLKPEDTAVYYCAARAIPSYRWVYRFAPQYDYWGQGTQVTVSS”, “low polyreactivity”; in that of “QVQLVESGGGLVQAGGSLRLSCAASGYTFAGNAMGWYRQAAGKERELVAAISRSGGRTYYADSVKGRFTISRDNAKNTVYLQMNSLNPEDTAVYYCAAYFPRTLFEFGYWGQGTQVTVSS”, “high polyreactivity”.
Consider “QVQLVESGGGLVQAGGSLRLSCAASGFTFAHNAMGWYRQAPGKERELVAAISSRGGRTFYADSVKGRFTISRDNAKNTVYLQMNSLKPEDTAVYYCNRVRSFQYDYWGQGTQVTVSS”, for which the “polyreactivity (PSR sort gate)” value is reported as “high polyreactivity”.
In the case of “QVQLVESGGGLVQAGGSLRLSCAASGRILPYNVMGWYRQAPGKEREFVAAITGSGGDTYYADSVKGRFTISRDNAKNTVYLQMNSLKPEDTAVYYCAAAPYIGGSFGQTPGSGYWGQGTQVTVSS” it was “low polyreactivity”; in that of “QVQLVESGGGLVQAGGSLRLSCAASGFIFYRYAMGWYRQAPGKERELVAVISGSGGRTYYADSVKGRFTISRDNAKNTVYLQMNSLKPEDTAVYYCAAVTRRRYYGHIYGYWGQGTQVTVSS”, “high polyreactivity”; in that of “QVQLVESGGGLVQAGGSLRLSCAASGSTFSYNAMGWYRQAPGKERELVAAISWSGGSTYYADSVKGRFTISRDNAKNTVYLQMNSLKPEDTAVYYCASDSPYGYYEGDYWGQGTQVTVSS”, “low polyreactivity”.
In the case of “QVQPVESAGGLVQAGGSLRLSCSASGFIFKYYAMGWYRQAPGKERELVAAISYSGTRTYYADSVKGRFTISRDNAKNTVYLQMNSLKPEDTAVYYCNARDWSFVGTYDYWGQGTQVTVSS” it was “high polyreactivity”; in that of “QVQLVESGGGLVQAGGSLRLSCAASGLIFVGYAMGWYRQAPGKERELVAAITSGGSTKYADSVKGRFTISRDNAKNTVYLQMNSLKPEDTAVYYCAASGWRNWWSARNYYWGQGTQVTVSS”, “low polyreactivity”; in that of “QVQLVDSGGGLGQAGGSLRLSCAASGSIFTTNAMGCYRHAPGKERELVAASSSRGGSTYYADSVKGRFTISRDNAKNTVYLQMNSLKPEDTAVYYCAARYRWPIPGTNYEYWGQGTQVTVSS”, “low polyreactivity”.
In the case of “QVQLVESGGGLVQAGGSLRLSCDASGRIFDYYAMGWYRQAPGKEMELVAAISTSGGSTYYADSVKGRFTISRDNAKNTVYLQMTRLKPEDTAVYYWAKDITDTYPGLDYDYWGQGTQVTVSS” it was “low polyreactivity”.

Values taken from the nanobody polyreactivity screen of Harvey et al. (2022).
